The values below are quoted from earlier work in PMC4920389.

In this data set the target is Glu23 (UniProt position 23, FAVDEENKIGQ). Kind of data set: stability. As to conditions: native (folded) state.

For “MNEI (single-chain monellin) (Dioscoreophyllum cumminsii)”, the pKa entry is recorded as “approximately 7.5”.
